Measurements: paper PMC9482650, “Quantitative fragmentomics allow affinity mapping of interactomes” (Nature Communications, 2022)
Blank lines part the entries; values can stand above or below the binder they belong to.

Experiments:
Assay in all cases: holdup assay
Design in all cases: key: below the threshold = too weak to quantify, mostly under pKd 3.1 to 4
[1] = target: FRMPD2_2, Q68DX3
[2] = target: GORASP1, Q9BQQ3
[3] = target: MAGI2_5, Q86UL8
[4] = target: LDB3, O75112
[5] = target: T1, CARD11, Q9BXL7
T1 sequence (Q9BXL7 662-765, limits assumed, looked up): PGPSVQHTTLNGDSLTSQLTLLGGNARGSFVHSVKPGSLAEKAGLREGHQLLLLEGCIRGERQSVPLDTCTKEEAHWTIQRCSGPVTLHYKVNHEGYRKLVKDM

[6] = target: T2, LIN7C, Q9NUP9
T2 sequence (Q9NUP9 88-185, limits assumed, looked up): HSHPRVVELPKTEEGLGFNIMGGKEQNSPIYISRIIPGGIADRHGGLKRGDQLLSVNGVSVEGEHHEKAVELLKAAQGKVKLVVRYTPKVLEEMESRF

[7] = target: GRIP2_7, Q9C0E4
[8] = target: GRID2IP_2, A4D2P6
[9] = target: T3, TIAM2, Q8IVF5
T3 sequence (Q8IVF5 885-986, limits assumed, looked up): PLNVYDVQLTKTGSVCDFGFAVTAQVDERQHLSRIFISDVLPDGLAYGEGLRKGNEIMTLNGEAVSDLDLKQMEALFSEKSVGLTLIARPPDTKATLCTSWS

[10] = target: DLG1_3, Q12959
[11] = target: MAST1, Q9Y2H9
[12] = target: T4, HTRA3, P83110
T4 sequence (P83110 354-453, limits assumed, looked up): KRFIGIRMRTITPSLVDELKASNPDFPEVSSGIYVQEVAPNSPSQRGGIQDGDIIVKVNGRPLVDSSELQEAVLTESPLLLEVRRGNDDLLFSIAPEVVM

[13] = target: T5, MPDZ_12, O75970
T5 sequence (O75970 1857-1958, limits assumed, looked up): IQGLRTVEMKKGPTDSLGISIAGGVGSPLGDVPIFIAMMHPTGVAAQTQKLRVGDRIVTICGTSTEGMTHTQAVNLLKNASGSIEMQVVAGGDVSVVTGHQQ

[14] = target: GRID2IP_1, A4D2P6
[15] = target: HTRA2, O43464
[16] = target: T6, APBA3_1, O96018
T6 sequence (O96018 389-490, limits assumed, looked up): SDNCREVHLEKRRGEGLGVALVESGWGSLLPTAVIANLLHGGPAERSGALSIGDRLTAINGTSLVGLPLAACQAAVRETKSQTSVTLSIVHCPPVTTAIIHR

[17] = target: NHERF2_2, Q15599
[18] = target: GORASP2, Q9H8Y8
[19] = target: T7, GRIP1_7, Q9Y3R0
T7 sequence (Q9Y3R0 999-1096, limits assumed, looked up): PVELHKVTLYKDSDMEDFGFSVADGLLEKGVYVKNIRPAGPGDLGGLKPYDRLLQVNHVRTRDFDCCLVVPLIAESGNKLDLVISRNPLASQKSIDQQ

[20] = target: SCRIB_1, Q14160
[21] = target: DLG4_3, P78352
[22] = target: AHNAK1, Q09666
[23] = target: T8, SYNJ2BP, P57105
T8 sequence (P57105 8-110, limits assumed, looked up): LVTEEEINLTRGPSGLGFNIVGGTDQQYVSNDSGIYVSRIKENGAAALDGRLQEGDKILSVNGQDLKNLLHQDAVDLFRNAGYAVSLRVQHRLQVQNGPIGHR

[24] = target: DLG2_2, Q15700
[25] = target: T9, SNTA1, Q13424
T9 sequence (Q13424 82-180, limits assumed, looked up): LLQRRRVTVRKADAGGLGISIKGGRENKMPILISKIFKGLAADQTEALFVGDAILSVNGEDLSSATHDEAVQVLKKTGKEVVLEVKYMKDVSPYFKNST

[26] = target: T10, SNTG2, Q9NY99
T10 sequence (Q9NY99 68-166, limits assumed, looked up): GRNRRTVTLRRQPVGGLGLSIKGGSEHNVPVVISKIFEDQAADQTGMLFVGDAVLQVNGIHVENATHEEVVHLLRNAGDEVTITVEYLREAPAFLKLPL

[27] = target: GRIP2_5, Q9C0E4
[28] = target: MAGI2_2, Q86UL8
[29] = plain residues with an end cap or a label only (N-terminal biotin on a linker: ttds)
[30] = plain residues with an end cap or a label only (N-terminal biotin on a linker: ado-ado)

NHERF2_2, Q15599, sequence (Q15599 142-238): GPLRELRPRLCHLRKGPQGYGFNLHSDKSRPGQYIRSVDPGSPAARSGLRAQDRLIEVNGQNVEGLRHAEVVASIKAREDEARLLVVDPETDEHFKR
DLG1_3, Q12959, sequence (Q12959 457-571): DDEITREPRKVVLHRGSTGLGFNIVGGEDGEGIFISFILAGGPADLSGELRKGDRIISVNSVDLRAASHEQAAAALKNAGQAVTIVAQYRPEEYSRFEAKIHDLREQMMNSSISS
SCRIB_1, Q14160, sequence (Q14160 718-814): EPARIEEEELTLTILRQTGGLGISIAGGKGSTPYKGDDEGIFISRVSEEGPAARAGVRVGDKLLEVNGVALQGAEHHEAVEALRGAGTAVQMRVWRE
DLG2_2, Q15700, sequence (Q15700 189-283): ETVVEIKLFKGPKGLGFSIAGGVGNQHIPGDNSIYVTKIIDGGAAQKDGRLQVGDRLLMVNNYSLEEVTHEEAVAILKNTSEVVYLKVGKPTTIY
MAST1, Q9Y2H9, sequence (Q9Y2H9 962-1065): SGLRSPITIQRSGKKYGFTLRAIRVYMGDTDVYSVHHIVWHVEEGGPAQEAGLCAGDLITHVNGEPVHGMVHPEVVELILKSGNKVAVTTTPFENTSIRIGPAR
LDB3, O75112, sequence (O75112 1-94): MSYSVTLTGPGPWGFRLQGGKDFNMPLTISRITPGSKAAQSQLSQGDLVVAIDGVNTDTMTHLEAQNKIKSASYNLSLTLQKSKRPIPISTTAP
MAGI2_5, Q86UL8, sequence (Q86UL8 915-1017): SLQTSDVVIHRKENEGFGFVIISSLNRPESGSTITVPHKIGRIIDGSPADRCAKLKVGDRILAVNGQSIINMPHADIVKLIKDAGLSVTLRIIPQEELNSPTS
FRMPD2_2, Q68DX3, sequence (Q68DX3 944-1038): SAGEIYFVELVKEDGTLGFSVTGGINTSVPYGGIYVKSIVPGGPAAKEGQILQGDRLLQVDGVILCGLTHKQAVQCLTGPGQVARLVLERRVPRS
AHNAK1, Q09666, sequence (Q09666 4-100): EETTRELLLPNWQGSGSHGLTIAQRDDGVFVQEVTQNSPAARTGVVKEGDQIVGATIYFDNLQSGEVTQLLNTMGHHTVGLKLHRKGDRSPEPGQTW
GRIP2_7, Q9C0E4, sequence (Q9C0E4 934-1023): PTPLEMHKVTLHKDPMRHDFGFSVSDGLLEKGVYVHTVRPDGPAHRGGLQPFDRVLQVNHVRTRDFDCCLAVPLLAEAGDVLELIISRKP
GORASP1, Q9BQQ3, sequence (Q9BQQ3 1-208): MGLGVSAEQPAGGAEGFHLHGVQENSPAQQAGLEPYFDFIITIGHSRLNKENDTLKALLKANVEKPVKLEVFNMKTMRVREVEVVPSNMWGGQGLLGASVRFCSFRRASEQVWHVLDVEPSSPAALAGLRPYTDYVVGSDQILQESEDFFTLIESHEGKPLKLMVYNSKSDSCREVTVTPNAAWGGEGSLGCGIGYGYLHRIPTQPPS
DLG4_3, P78352, sequence (P78352 306-403): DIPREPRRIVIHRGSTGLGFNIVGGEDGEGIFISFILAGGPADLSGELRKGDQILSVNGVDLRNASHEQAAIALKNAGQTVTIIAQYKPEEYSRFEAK
HTRA2, O43464, sequence (O43464 355-458): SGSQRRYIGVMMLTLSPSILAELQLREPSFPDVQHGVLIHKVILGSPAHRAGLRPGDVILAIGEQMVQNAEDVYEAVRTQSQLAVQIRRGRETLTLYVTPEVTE
GRID2IP_1, A4D2P6, sequence (A4D2P6 1-87): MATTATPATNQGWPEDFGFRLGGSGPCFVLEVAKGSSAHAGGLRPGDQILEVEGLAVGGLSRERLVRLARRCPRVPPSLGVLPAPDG
GRID2IP_2, A4D2P6, sequence (A4D2P6 272-370): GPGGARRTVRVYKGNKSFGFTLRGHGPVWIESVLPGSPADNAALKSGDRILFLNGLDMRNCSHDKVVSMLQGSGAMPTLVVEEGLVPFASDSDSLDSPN
GRIP2_5, Q9C0E4, sequence (Q9C0E4 544-642): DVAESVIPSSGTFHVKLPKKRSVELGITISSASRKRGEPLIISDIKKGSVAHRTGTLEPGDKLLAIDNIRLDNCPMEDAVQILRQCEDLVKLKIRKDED
MAGI2_2, Q86UL8, sequence (Q86UL8 410-522): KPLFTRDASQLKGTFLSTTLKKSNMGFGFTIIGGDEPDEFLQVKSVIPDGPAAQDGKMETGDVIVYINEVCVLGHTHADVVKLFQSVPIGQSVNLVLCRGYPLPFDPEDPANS

pKd [1, 29]: below the threshold
pKd [2, 29]: below the threshold
pKd [3, 29]: 3.7
pKd [4, 29]: below the threshold
pKd [5, 29]: below the threshold
pKd [6, 29]: below the threshold
pKd [7, 29]: below the threshold
pKd [8, 29]: 3.74
pKd [9, 29]: below the threshold
pKd [10, 29]: 3.49
pKd [11, 29]: 4.51
pKd [12, 29]: below the threshold
pKd [13, 29]: below the threshold
pKd [14, 29]: below the threshold
pKd [15, 29]: below the threshold
pKd [16, 29]: below the threshold
pKd [17, 29]: below the threshold
pKd [18, 29]: below the threshold
pKd [19, 29]: below the threshold
pKd [20, 29]: 5.04
pKd [21, 29]: 3.62
pKd [22, 29]: below the threshold
pKd [23, 29]: 4.65
pKd [24, 29]: below the threshold
pKd [25, 29]: below the threshold
pKd [26, 29]: below the threshold
pKd [27, 29]: below the threshold
pKd [28, 29]: below the threshold
B1: CIT, O14578 (peptide)
chain: VNKVWDQSSV

pKd [1, 29]: 3.8
pKd [2, 29]: below the threshold
pKd [3, 29]: 3.5
pKd [4, 29]: below the threshold
pKd [5, 29]: below the threshold
pKd [6, 29]: 3.68
pKd [7, 29]: below the threshold
pKd [8, 29]: 4.29
pKd [9, 29]: below the threshold
pKd [10, 29]: 4.06
pKd [11, 29]: 4.56
pKd [12, 29]: below the threshold
pKd [13, 29]: below the threshold
pKd [14, 29]: below the threshold
pKd [15, 29]: below the threshold
pKd [16, 29]: below the threshold
pKd [17, 29]: 4.48
pKd [18, 29]: below the threshold
pKd [19, 29]: below the threshold
pKd [20, 29]: 5.56
pKd [21, 29]: 3.61
pKd [22, 29]: below the threshold
pKd [23, 29]: 4.95
pKd [24, 29]: 3.9
pKd [25, 29]: 4.8
pKd [26, 29]: 5.22
pKd [27, 29]: below the threshold
pKd [28, 29]: below the threshold
B2: MAP4, P27816 (peptide)
chain: LDSQIQETSI

pKd [1, 30]: below the threshold
pKd [2, 30]: below the threshold
pKd [3, 30]: below the threshold
pKd [4, 30]: 3.54
pKd [5, 30]: below the threshold
pKd [6, 30]: below the threshold
pKd [7, 30]: 3.59
pKd [8, 30]: 3.48
pKd [9, 30]: below the threshold
pKd [10, 30]: 3.8
pKd [11, 30]: 3.91
pKd [12, 30]: below the threshold
pKd [13, 30]: below the threshold
pKd [14, 30]: below the threshold
pKd [15, 30]: below the threshold
pKd [16, 30]: below the threshold
pKd [17, 30]: 3.74
pKd [18, 30]: below the threshold
pKd [19, 30]: below the threshold
pKd [20, 30]: 3.5
pKd [21, 30]: 4
pKd [22, 30]: below the threshold
pKd [23, 30]: below the threshold
pKd [24, 30]: below the threshold
pKd [25, 30]: 3.5
pKd [26, 30]: below the threshold
pKd [27, 30]: below the threshold
pKd [28, 30]: below the threshold
B3: RCN1, Q15293 (peptide)
chain: EDLTKNHDEL
